{"source": "patent US20080280834A1", "about": "“Compounds and methods for inhibiting apoptosis” (University of Pittsburgh of the Commonwealth System of …, priority 2005, published 2008)", "note": "pEC50: −log10 of the molar value. Residues, ends and D or L forms follow the SMILES beside them. No end group written: not given here."}
{"target": "T1, FasR (Homo sapiens, UniProt P25445)", "T1 construct": "Fc (IgG Fc fusion partner); purchased R&D Systems 326-FS-050", "T1 sequence (P25445 with tags, fused parts or gaps limits assumed)": "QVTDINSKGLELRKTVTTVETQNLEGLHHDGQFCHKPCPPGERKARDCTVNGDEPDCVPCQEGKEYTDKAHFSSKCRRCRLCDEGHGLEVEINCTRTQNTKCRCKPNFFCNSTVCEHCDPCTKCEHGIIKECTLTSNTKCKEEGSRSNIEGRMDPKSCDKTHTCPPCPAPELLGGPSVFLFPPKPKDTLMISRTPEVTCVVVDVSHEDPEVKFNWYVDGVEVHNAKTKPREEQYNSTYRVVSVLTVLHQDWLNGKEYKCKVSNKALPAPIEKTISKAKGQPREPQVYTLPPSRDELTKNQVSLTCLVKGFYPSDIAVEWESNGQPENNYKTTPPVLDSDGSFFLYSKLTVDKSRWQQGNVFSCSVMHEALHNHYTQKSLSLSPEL", "experiment": "ELISA binding of peptides to FasR (association constant)", "settings": "ELISA, 1 nM to 1 μM; fourth residue varied", "excerpt": "(§1) Cell Lines, Chemicals, Antibodies & Proteins. Recombinant Human Fas/TNFRSF6/Fc Chimera (cat no. 326-FS-050), Human Fas Ligand/TNFSF6 (cat. No. 126-FL), Anti-human Fas TNFRSF6 Polyclonal Antibody (cat. no. AF326) and Anti-6×Histidine Cross-Linking Ab (cat no. MAB050) were purchased from R&D Systems. Anti-human, IgM-HRP (cat. no. AP320P) was purchased from Chemicon International. Phosphate buffered saline (cat. no. P3563), sodium azide (cat. no. 71289) and 3,3′,5,5′-Tetramethylbenzidine (TMB) Liquid Substrate System for ELISA (cat. no. T0440) were purchased from Sigma-Aldrich. Cliniplate 96-well microplates w/enhanced binding (cat. no. 28298-604) were purchased from VWR. Costar, 96-well, cell culture assay plates (cat. no. 3632) were ordered from Corning Incorporated. Jurkat cells (ATCC no. CRL-1990) and L929 (ATCC no. CRL-2148) were purchased from ATCC and were propagated in RPMI 1640 medium with 2 mM L-glutamine, adjusted to contain 1.5 g/L sodium bicarbonate, 4.5 g/L glucose, 10 mM HEPES, and 1 mM sodium pyruvate, 90%; 10% fetal bovine serum. CellTiter Blue Cell Viability Assay (cat. no. TB317) was purchased from Promega.\n(§2) ELISA. Peptides were dissolved in a coating buffer solution (0.05M Sodium Carbonate, 0.02% Sodium Azide, pH=9.6) at the appropriate concentrations to a final concentration of 10 μM. Dilutions were made accordingly to reach desired experimental concentrations. 100 μl aliquots of the peptide solution was added to each well and incubated for 2 hours. All incubations were carried out with shaking at T=37° C. Wells were washed by pipetting solution out of each well, adding 200 μL of washing solution (PBS-Tween; 0.5%), shaking for 15 minutes and emptying each well. Three wash cycles were carried out prior to addition of 200 μL of blocking solution (1% BSA in PBS buffer) to each well followed by incubation for 2 hours. Wells were then washed (as per above procedure) three times. Protein solutions of the appropriate concentrations (Vsolution 50 μL) were then added and incubated for 2 hours. After washing three times (as per above protocol) Fas specific antibody solution (˜1:20,000) was added to each well in 100 μL aliquots and incubated for 1 hour. After washing three times (as per above protocol) IgM-HRP solution (˜1:20,000) was added to each well in 100 μL aliquots and incubated (with shaking) for 1 hour at T=37° C. Wells were washed three times prior to the addition of ready-to-use TMD, followed by incubation for 30 minutes. 2M H2SO4 (3 drops) was added to stop colorimetric reaction and the absorption was taken at 450 nm on a Perkin-Elmer, Victor3 Model automated plate reader. Data was analyzed using standard regression fits in Excel.\n(§3) Effect of Amino Acid Substitution on Binding Affinities. The binding affinity of each tetrapeptide was determined by standard ELISA with a concentration range of 1 nM to 1 μM. In the first series of peptides, alterations were made only to the tyrosine residue while retaining the final three amino acids homologous in the parent sequence (LGA)."}
{"compound": "YLGI [tetrapeptide]", "Ka(M − 1), Measured Association Constants (Ka) for YLGA and YLGX Substituted Peptides": "3 × 10^7 M − 1"}
{"compound": "YLGL [tetrapeptide]", "Ka(M − 1), Measured Association Constants (Ka) for YLGA and YLGX Substituted Peptides": "3 × 10^7 M − 1"}
{"compound": "YLGT [tetrapeptide]", "Ka(M − 1), Measured Association Constants (Ka) for YLGA and YLGX Substituted Peptides": "no binding observed"}
{"target": "T1, FasR", "experiment": "ELISA binding of peptides to FasR (association constant)", "settings": "ELISA, 1 nM to 1 μM; second residue varied", "excerpt": "as §1, §2, §3"}
{"compound": "YFGA [tetrapeptide]", "Ka(M^−1), Measured Association Constants (Ka) YLGA and YXGA Substituted Proteins": "no binding"}
{"compound": "YGGA [tetrapeptide]", "Ka(M^−1), Measured Association Constants (Ka) YLGA and YXGA Substituted Proteins": "1e+07 M⁻¹"}
{"compound": "YIGA", "Ka(M^−1), Measured Association Constants (Ka) YLGA and YXGA Substituted Proteins": "2e+08 M⁻¹"}
{"compound": "YTGA [tetrapeptide]", "Ka(M^−1), Measured Association Constants (Ka) YLGA and YXGA Substituted Proteins": "no binding"}
{"compound": "YVGA", "Ka(M^−1), Measured Association Constants (Ka) YLGA and YXGA Substituted Proteins": "2e+08 M⁻¹"}
{"target": "T1, FasR", "experiment": "ELISA binding of peptides to FasR (association constant)", "settings": "ELISA, 1 nM to 1 μM; third residue varied", "excerpt": "as §1, §2, §3"}
{"compound": "YLAA [tetrapeptide]", "Ka(M^−1), Measured Association Constants (Ka) for YLGA and YLXA Substituted Peptides": "1e+06 M⁻¹"}
{"compound": "YLIA [tetrapeptide]", "Ka(M^−1), Measured Association Constants (Ka) for YLGA and YLXA Substituted Peptides": "no binding observed"}
{"compound": "YLLA [tetrapeptide]", "Ka(M^−1), Measured Association Constants (Ka) for YLGA and YLXA Substituted Peptides": "1e+06 M⁻¹"}
{"compound": "YldAA", "Ka(M^−1), Measured Association Constants (Ka) for YLGA and YLXA Substituted Peptides": "no binding observed"}
{"target": "T1, FasR", "experiment": "ELISA binding of peptides to FasR (association constant)", "settings": "ELISA, concentration range 1 nM to 1 μM; first residue varied", "excerpt": "as §1, §2, §3"}
{"compound": "ALGA [tetrapeptide]", "Ka(M^−1), Measured Association Constants (Ka) for YLGA to XLGA Substituted Peptides": "no binding"}
{"compound": "DLGA [tetrapeptide]", "Ka(M^−1), Measured Association Constants (Ka) for YLGA to XLGA Substituted Peptides": "5e+07 M⁻¹"}
{"compound": "ELGA [tetrapeptide]", "Ka(M^−1), Measured Association Constants (Ka) for YLGA to XLGA Substituted Peptides": "5e+07 M⁻¹"}
{"compound": "GLGA [tetrapeptide]", "Ka(M^−1), Measured Association Constants (Ka) for YLGA to XLGA Substituted Peptides": "no binding"}
{"compound": "ILGA [tetrapeptide]", "Ka(M^−1), Measured Association Constants (Ka) for YLGA to XLGA Substituted Peptides": "9e+06 M⁻¹"}
{"compound": "KLGA [tetrapeptide]", "Ka(M^−1), Measured Association Constants (Ka) for YLGA to XLGA Substituted Peptides": "8e+06 M⁻¹"}
{"compound": "TLGA [tetrapeptide]", "Ka(M^−1), Measured Association Constants (Ka) for YLGA to XLGA Substituted Peptides": "2e+08 M⁻¹"}
{"target": "T1, FasR", "experiment": "ELISA binding of peptides to FasR (association constant)", "settings": "Table 7; peptides based on the α-Met sequence, Fas receptor", "excerpt": "as §1, §2, §3", "units": {"Ka (M^−1), Elongated Peptide Sequences": "M⁻¹"}}
{"compound": "HHIYLGA [HHI YLG A]", "Ka (M^−1), Elongated Peptide Sequences": "3e+08"}
{"compound": "HHIYLGAT [HHI YLG AT]", "Ka (M^−1), Elongated Peptide Sequences": "3e+08"}
{"compound": "HHIYLGATN [HHI YLG ATN]", "Ka (M^−1), Elongated Peptide Sequences": "3e+08"}
{"compound": "HHIYLGATNY [HHI YLG ATN Y]", "Ka (M^−1), Elongated Peptide Sequences": "3e+08"}
{"compound": "HHIYLGATNYI [HHI YLG ATN YI]", "Ka (M^−1), Elongated Peptide Sequences": "3e+08"}
{"compound": "HHIYLGATNYIY [HHI YLG ATN YIY]", "Ka (M^−1), Elongated Peptide Sequences": "3e+08"}
{"compound": "HIYLGATNYIY [HI YLG ATN YIY]", "Ka (M^−1), Elongated Peptide Sequences": "3e+08"}
{"compound": "IYLGATNYIY [I YLG ATN YIY]", "Ka (M^−1), Elongated Peptide Sequences": "3e+08"}
{"compound": "YLGATNYIY [YLG ATN YIY]", "Ka (M^−1), Elongated Peptide Sequences": "3e+08"}
{"target": "T1, FasR", "experiment": "ELISA binding of peptides to FasR (association constant)", "settings": "relative to parent YLGA", "excerpt": "as §1, §2, §3", "units": {"decrease in measured Ka": "fold"}}
{"compound": "YGGA [tetrapeptide]", "decrease in measured Ka": 20}
{"tested_on": "Jurkat cells", "experiment": "not given", "type": "cell-based, human", "settings": "not given", "excerpt": "as §1\n(§4) Apoptosis Assay. […] Control reactions were diluted with sterile PBS buffer to final volume of 200 μL per well. Peptide solutions (in PBS buffer, pH=7.3) were added in appropriate volumes to reach the desired concentrations in each well given a total volume of 200 μL per well. Apoptosis was induced by the addition of cross-linked human FasL at a concentration of 0.5 ng/ml. Plates were then incubated under sterile conditions, with shaking in a Kendro, model Hera Cell 150 incubator at T=37° C., % CO2=5 for 3 hours. A Cell Titer Blue Cell Viability Assay kit was used (as per accompanying protocol) to determine % apoptosis in cells. Fluorescence readings (560/590 nm) were taken after 4 hours under above cited incubation conditions on a Perkin-Elmer, Victor3 Model automated plate reader. Data was analyzed using standard regression fits in Excel.\n(§5) Correlating the In-vitro Binding Assays with Cellular Activity. FasL activated apoptosis is known to occur by binding of the ligand to the receptor thereby initiating a series of signaling events leading to caspase production and subsequent cell death. If the YLGA (SEQ ID NO:1) motif isolated in both the α-Met and FasL proteins, is indeed the primary sequence responsible for binding to FasR then at a given concentration, peptides of sufficient Ka values should preferably bind to the receptor. This in turn would block the binding site from FasL and inhibiting cell death in the presence of both peptide and FasL. In order to examine this possibility, Jurkat cells (known to upregulate the Fas receptor) were treated with varying concentrations of peptide and then exposed to recombinant FasL."}
{"compound": "CC(C)C[C@H](NC(=O)[C@@H](N)CC(C)C)C(=O)NCC(=O)N[C@@H](C)C(N)=O", "note": "[LLGA] (H-LLGA-NH2)", "pEC50": 7.03}
{"compound": "CC(C)C[C@H](NC(=O)[C@@H](N)CO)C(=O)NCC(=O)N[C@@H](C)C(N)=O", "note": "[SLGA] (H-SLGA-NH2)", "pEC50": 8.22}
{"compound": "C[C@H](NC(=O)CNC(=O)[C@H](C)NC(=O)[C@@H](N)Cc1ccc(O)cc1)C(N)=O", "note": "[YAGA] (H-YAGA-NH2)", "pEC50": 8.22}
{"tested_on": "Jurkat cells", "experiment": "not given", "type": "cell-based, human", "settings": "Table 5; Jurkat cells, peptide then recombinant FasL, cell viability", "excerpt": "as §1, §4, §5"}
{"compound": "LGA [LGA (trimer), Y-free trimer peptide]", "EC50 (nM)": "no inhibition"}
{"compound": "YLAA [tetrapeptide]", "EC50 (nM)": "no inhibition"}
{"tested_on": "Jurkat cells", "experiment": "not given", "type": "cell-based, human", "settings": "Table 8; read-out: Fas EC50", "excerpt": "as §1, §4, §5"}
{"compound": "RSSYLGA [RSSYLGA]", "pEC50": 8.48}
{"target": "T2, TNFR1 (Mus musculus, UniProt P25118)", "T2 sequence (P25118 30-454)": "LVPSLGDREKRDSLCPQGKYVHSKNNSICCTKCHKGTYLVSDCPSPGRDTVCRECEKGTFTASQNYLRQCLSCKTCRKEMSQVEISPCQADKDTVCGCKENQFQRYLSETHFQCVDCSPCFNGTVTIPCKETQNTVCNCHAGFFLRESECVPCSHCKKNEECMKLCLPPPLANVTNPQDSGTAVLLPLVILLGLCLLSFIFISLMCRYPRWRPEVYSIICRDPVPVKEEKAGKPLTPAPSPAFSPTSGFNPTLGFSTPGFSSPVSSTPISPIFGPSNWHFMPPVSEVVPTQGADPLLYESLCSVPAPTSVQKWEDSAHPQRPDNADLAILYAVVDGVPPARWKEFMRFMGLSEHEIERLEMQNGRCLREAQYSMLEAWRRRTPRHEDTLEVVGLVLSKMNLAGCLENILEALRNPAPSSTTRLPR", "experiment": "Inhibition of the TNFR / TNFR1 pathway (EC50)", "type": "cell-based", "settings": "Table 8", "excerpt": "This correlation implies a peptide-protein interaction mechanism, wherein whereby tightly bound peptides are capable of blocking FasL association with the receptor and as such, inhibit FasL induced apoptosis."}
{"compound": "RSSYLGA [RSSYLGA]", "TNFR1 EC50": "no inhibition"}
{"compound": "RSSYLGAVF-NH2 [RSSYLGAVF]", "TNFR1 EC50": "no inhibition"}
